For test [1], the target named is T1, monkey HER3 protein (extracellular sequence with six histidines at the C-terminal) (monkey).
T1 construct: Made in HEK293 cells; also called Monkey HER3-His
T1 chain: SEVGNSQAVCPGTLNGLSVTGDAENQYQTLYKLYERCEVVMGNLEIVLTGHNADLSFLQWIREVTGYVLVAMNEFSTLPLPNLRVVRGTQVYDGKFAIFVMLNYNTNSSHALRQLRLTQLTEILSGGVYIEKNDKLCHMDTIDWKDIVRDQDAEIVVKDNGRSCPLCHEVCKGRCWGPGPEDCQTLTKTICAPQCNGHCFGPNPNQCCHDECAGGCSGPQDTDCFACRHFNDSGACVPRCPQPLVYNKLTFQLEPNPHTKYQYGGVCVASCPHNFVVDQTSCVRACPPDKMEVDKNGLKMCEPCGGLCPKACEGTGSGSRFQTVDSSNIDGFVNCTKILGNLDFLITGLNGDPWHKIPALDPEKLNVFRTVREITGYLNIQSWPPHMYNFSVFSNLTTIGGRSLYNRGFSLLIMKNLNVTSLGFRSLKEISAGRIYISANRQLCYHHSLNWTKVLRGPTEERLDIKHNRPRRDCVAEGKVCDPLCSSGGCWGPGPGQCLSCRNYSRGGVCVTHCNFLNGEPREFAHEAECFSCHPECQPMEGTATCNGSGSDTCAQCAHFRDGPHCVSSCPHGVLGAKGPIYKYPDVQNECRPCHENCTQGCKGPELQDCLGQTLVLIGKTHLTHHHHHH
Kind of test: ELISA, coated monkey HER3 protein, chimeric antibody. As to the method: (§1) The plate was washed 5 times with PBST (0.2% Tween-20). After the plate was dried, 100 μl of TMB (CoWin Biotech) chromogenic substrate was added to each well, reacted at room temperature for 3-5 minutes; 50 μl of 2N H₂SO₄ was added to each well to stop the chromogenic reaction, and absorbance value at OD450 nm was read with a microplate reader. The raw data were imported into GraphPad Prism 6 software for nonlinear curve fitting, and the EC50 values of each antibody binding to human HER3 and monkey HER3 were calculated.

Test [2] concerns the target T2, human HER3 protein (extracellular sequence with six histidines at the C-terminal) (human, UniProt P21860 20-643).
T2 construct: extracellular domain; Made in HEK293 cells; also called Human HER3-His
Kind of test: ELISA, coated human HER3 protein, chimeric antibody. As to the method:
as §1

Test [3] deals with T3, human HER3 on cells (human, UniProt P21860 20-1342).
T3 construct: whole, on cells; also called T47D; NCI-N87
Nature of the test: flow cytometry on NCI-H358 cells. As to the method: (§2) Data processing: the Median PE values were exported, then imported into GraphPad Prism 6 software, and EC50 values were calculated.

For test [4], the target named is T3, human HER3 on cells. Kind of test: cell-based or functional assay.
For test [5], the target named is T2, human HER3 protein (extracellular …). Kind of test: ELISA, coated human HER3-His. On the procedure:
(§3) The plate was washed 5 times with PBST (0.2% Tween-20), and dried, then 100 μl of TMB (InnoReagents) chromogenic substrate was added to each well, reacted at room temperature for 3-5 minutes, then 50 μl of 2N H₂SO₄ was added to each well to stop the chromogenic reaction, and the absorbance value at OD450 nm was read with a microplate reader. The raw data were imported into GraphPad Prism 6 software for nonlinear curve fitting, and EC50 values were calculated.

Test [6] shares this target. Kind of test: BLI (ForteBio), antibody captured on Protein A sensor, human HER3-His in solution, 1:1 global fit. On the procedure:
(§4) The measured results were entered into Data Analysis 11.0 software, by using 1:1 mode, and global fitting; the results were analyzed to obtain the association rate, dissociation rate and affinity constant.

The target in test [7] is T1, monkey HER3 protein (extracellular …). Nature of the test: ELISA, coated monkey HER3-His. As to the method:
as §3

Test [8] addresses T3, human HER3 on cells. Nature of the test: flow cytometry on T47D cells. As to the method: as §2
The target of test [9] is T2, human HER3 protein (extracellular …). Nature of the test: competition ELISA on coated human HER3 protein (1 µg/ml); competitor: biotin-labelled 22B6D2-hIgG (22B6D2-hIgG-Bio, diluted to 3 ng/mL); streptavidin-HRP, OD450. On the procedure:
(§5) The plate was washed with PBST (0.2% Tween-20) for 3 times, and dried, 100 μl of diluted Peroxidase-conjugated Streptavidin secondary antibody (Proteintech) was added to each well, and incubated at room temperature for 1 hour; the plate was washed 5 times with PBST (0.2% Tween-20), and dried, 100 μl of TMB (InnoReagents) chromogenic substrate was added to each well, reacted at room temperature for 3-5 minutes; 50 μl of 2N H₂SO₄ was added to each well to stop the chromogenic reaction, and OD450 nm absorbance value was read with a microplate reader. The raw data were imported into GraphPad Prism 6 software for nonlinear curve fitting (4-parameter).

Test [10] concerns the target T3, human HER3 on cells. Nature of the test: cell-based or functional assay. The source holds these as a separate data set.
In test [11] the target is T1, monkey HER3 protein (extracellular …). Kind of test: BLI (ForteBio), antibody captured on Protein A sensor, monkey HER3-His in solution, 1:1 global fit. On the procedure: as §4
Test [12] addresses T3, human HER3 on cells. Kind of test: competition flow cytometry on adherent cells (cell line not named in paragraph 175); competitor: 22B6D2-hIgG-Bio, final 25 ng/ml; PE streptavidin. From the text: Data processing: the Median PE values were exported, and then imported into GraphPad Prism 6 software for nonlinear curve fitting (4-parameter).
For test [13], the target named is T3, human HER3 on cells. Kind of test: cell-based or functional assay. The source holds these as a separate data set.
Test [14] has as its target T3, human HER3 on cells. Kind of test: cell-based or functional assay. The source holds these as a separate data set.
Test [15] has as its target T3, human HER3 on cells. Nature of the test: flow cytometry on NCI-N87 cells. On the procedure: as §2
For test [16], the target named is T2, human HER3 protein (extracellular …). Kind of test: competition ELISA on coated human HER3 protein (1 µg/ml); competitor: biotin-labelled U1-59 (U1-59-Bio, diluted to 50 ng/ml); streptavidin-HRP, OD450. On the procedure: as §5
The target of another test is T4, rat HER3 protein (rat, UniProt Q62799 20-643).
T4 construct: whole entry named; also called Rat HER3-His; rat protein
Nature of the test: ELISA, rat HER3 protein coated at 1 µg/ml, anti-human IgG-HRP, OD450. As to the method:
as §3

For test [17], the target named is T2, human HER3 protein (extracellular …). Kind of test: competition ELISA on coated human HER3 protein (1 µg/ml); competitor: biotin-labelled 47A3E3-hIgG (47A3E3-hIgG-Bio, diluted to 15 ng/mL); streptavidin-HRP, OD450. As to the method: as §5

T4 sequence (Q62799 20-643): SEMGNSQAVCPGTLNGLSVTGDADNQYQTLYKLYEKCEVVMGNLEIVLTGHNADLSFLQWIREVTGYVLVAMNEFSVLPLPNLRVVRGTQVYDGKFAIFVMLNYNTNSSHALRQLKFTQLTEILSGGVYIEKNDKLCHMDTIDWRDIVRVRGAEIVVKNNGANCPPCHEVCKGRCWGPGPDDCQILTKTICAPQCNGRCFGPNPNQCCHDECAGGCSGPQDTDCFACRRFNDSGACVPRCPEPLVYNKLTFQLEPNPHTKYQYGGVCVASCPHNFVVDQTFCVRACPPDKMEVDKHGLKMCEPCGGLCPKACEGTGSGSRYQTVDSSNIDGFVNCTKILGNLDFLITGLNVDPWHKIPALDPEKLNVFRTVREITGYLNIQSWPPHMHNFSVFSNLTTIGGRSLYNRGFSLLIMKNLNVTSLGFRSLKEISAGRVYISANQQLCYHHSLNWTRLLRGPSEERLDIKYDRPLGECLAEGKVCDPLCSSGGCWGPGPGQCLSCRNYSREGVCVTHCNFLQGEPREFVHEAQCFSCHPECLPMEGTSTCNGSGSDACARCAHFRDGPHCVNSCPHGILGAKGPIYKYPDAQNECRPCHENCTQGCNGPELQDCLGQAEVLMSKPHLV

B1: 100H7D3 (anti-human HER3 chimeric antibody) (antibody, V domains shown)
VH: EVQLVESGGGVVLPGRSLRLSCAASGFTFSRNAMHWVRQAPGKGLEWVAVIWHDGSNKYYGDSVKGRFTISRDNSKNTLYLQMDSLTAEDTAVYYCARDRGASDFRGQGTLVTVSS
VL: DIQMTQSPSTLSASVGDRVTITCRASQSINNWLAWYQQKPEKAPKLLIYKASSLESGVPSRFSGSGSGTEFTLTISSLQPDDFATYYCQQYNSYSLTFGGGTKVEIK
With B1, the EC50 stood at 0.0187 µg/mL in test [1] and 0.0131 µg/mL in test [2].

B2: 22B6D2-hIgG (anti-human HER3 fully human antibody) (antibody, V domains shown)
VH: EVHLVESGGGVVQPGRSLRLSCATSGFTFRSYGMHWVRQAPGKGLEWVAVIWYDGSNKYYADSVKGRFTISRDISKNTLYLQMNSLTAEDTAVYYCARYYYDSNGYYDAFDIWGQGTMVTVSS
VL: DIQLTQSPSFLSASVGDRVTITCRASQGISNYLAWYQQKPGKAPKLLIFAASTLQSGVPSRFSGSGSGAEFTLTISSLEPEDFATYYCQQLNSYPITFGQGTRLEIKR
notes: Human IgG1/kappa, expressed in CHO-S cells; also called 22B6D2-hIgG-Bio (biotin-labelled)
For B2, the half-maximal effective concentration (EC50) stood at 0.0857 µg/mL in the test with human HER3 on cells [3]; 0.00407 µg/mL in test [5]; 0.00363 µg/mL in test [7]; 0.0383 µg/mL with human HER3 on cells [8]; 0.0446 µg/mL with human HER3 on cells [15]. Also, the “ADCC activity, enhancement against U1-59” value with human HER3 on cells [4] was determined as 1.86 fold. In addition, the dissociation constant Kd in test [6] was 11.1 nM; in test [11] it was 49.6 nM. Moreover, the figures for the koff in test [6] and in test [11] were 0.00397 s⁻¹ and 0.00825 s⁻¹, respectively. Also, the on-rate (kon) in [6] was 357000 M⁻¹ s⁻¹; in test [11], 166000 M⁻¹ s⁻¹. Further, the “IC50 (read off the curve)” value in test [9] is about 0.4 µg/mL; with human HER3 on cells [12], about 0.1 µg/mL. Moreover, the “internalization activity, EC50, HPAF-II cells (flow cytometry)” value with human HER3 on cells [10] is 0.0294 µg/mL. Also, the “internalization activity, EC50, MDA-MB-453 cells (flow cytometry)” value with human HER3 on cells [10] is 0.0229 µg/mL. The “internalization activity, EC50, NCI-358 cells (flow cytometry)” value with human HER3 on cells [10] came out at 0.067 µg/mL. Besides, the “internalization activity, EC50, WIDR cells (flow cytometry)” value in the test with human HER3 on cells [10] worked out at 0.0301 µg/mL. Also, the “IC50 of inhibition of ligand (NRG1)-induced AKT phosphorylation in MCF-7 cells” value with human HER3 on cells [13] was determined as 0.0912 µg/mL. Moreover, the “ADCC activity, EC50 (Jurkat-NFAT/luciferase-CD16a reporter with CHO-S-hHER3 target cells)” value in the test with human HER3 on cells [14] turned out to be 0.00973 µg/mL.

B3: 22B6D2 (anti-human HER3 chimeric antibody) (antibody, V domains shown)
VH: B2 VH
VL: DIQLTQSPSFLSASVGDRVTITCRASQGISNYLAWYQQKPGKAPKLLIFAASTLQSGVPSRFSGSGSGAEFTLTISSLEPEDFATYYCQQLNSYPITFGQGTRLEIK
notes: detected with anti-Rat IgG
Consider B3, for which the EC50 in test [1] stood at 0.0071 µg/mL; in [2] it was 0.0054 µg/mL.

B4: 47A3E3-hIgG (anti-human HER3 fully human antibody) (antibody, V domains shown)
VH: EVQLQESGPGLVKPSQTLSLTCAISGDSVSSSQSTWNWIRQSPSRGLEWLGRTFYRSRWYNDYALSMKSRITINPDTSKNQFSLQLNPVTPEDTAVYYCARDTYYYGSGGFDYWGQGSRVTVSS
VL: DIQMTQSPSTLSASVGDRVTITCRASQSLSRWLAWYQQKPEKAPKLLIYKASSLESGVPSRFSGSGSGTEFTLTISTLQPDDFATYYCQQYKNYYSFGQGTKLEIKR
notes: Human IgG1/kappa, expressed in CHO-S cells; also called 47A3E3-hIgG-Bio (biotin-labelled)
For the molecule B4, the “IC50 (read off the curve)” value in test [16] was about 0.1 µg/mL; in test [17], about 0.5 µg/mL. In addition, the EC50 was determined as 0.0989 µg/mL in the test with human HER3 on cells [3]; 0.00713 µg/mL in test [5]; 0.00666 µg/mL in test [7]; 0.0601 µg/mL with human HER3 on cells [8]; 0.0923 µg/mL with human HER3 on cells [15]. Further, the binding result with rat HER3 protein is listed as “no binding”. Also, the Kd in test [6] amounted to 29.1 nM; in [11] it was 74.8 nM. Moreover, the koff in [6] is 0.0104 s⁻¹; in test [11], 0.0111 s⁻¹. In addition, the association rate constant (kon) in test [6] is 356000 M⁻¹ s⁻¹; in test [11], 148000 M⁻¹ s⁻¹. Further, in the test with human HER3 on cells [14], the “ADCC activity, EC50 (Jurkat-NFAT/luciferase-CD16a reporter with CHO-S-hHER3 target cells)” value turned out to be 0.0223 µg/mL.

B5: 47A3E3 (anti-human HER3 chimeric antibody) (antibody, V domains shown)
VH: B4 VH
VL: DIQMTQSPSTLSASVGDRVTITCRASQSLSRWLAWYQQKPEKAPKLLIYKASSLESGVPSRFSGSGSGTEFTLTISTLQPDDFATYYCQQYKNYYSFGQGTKLEIK
As for B5, the 50% effective concentration (EC50) in [1] amounted to 0.0101 µg/mL; in test [2], 0.0096 µg/mL.

B6: 44A4A11 (anti-human HER3 chimeric antibody) (antibody, V domains shown)
VH: EVQLLESGGGLVQPGGSLRLSCAASGFTFSSYAMNWVRQAPGKGLEWVSSISDSGGSTYYADSVKGRFTISRDNSKNTLYLQMNSLRAEDTAVYYCAKDGGISMVRGVIIEEGYFDLWGRGTLVTSPQ
VL: DIQLTQSPSFLSASVGDRVTITCRASQGISSYLAWYQQKPGKAPKLLIYVVSTLQSGVPSRFSGSGSGTEFTLTISSLQPEDFATYYCHQLNSYPLTFGGGTKVEIK
For B6, the figures for the concentration giving a half-maximal response (EC50) in [1] and in test [2] were 0.0065 µg/mL and 0.0121 µg/mL, respectively.

The values are drawn from US20260028417A1 (SICHUAN KELUN BIOTECH BIOPHARMACEUTICAL, published 2026).
